Paper PMC3814370, “Functional assignment of KEOPS/EKC complex subunits in the biosynthesis of the universal t^6A tRNA modification” (Nucleic Acids Research, 2013)

B1: Bud32–Cgi121 binary complex from Pyrococcus abyssi (complex)
chain 1: MKLIKQGAEAKIYLAEFSELYFDYPIKVIVKERIKKRYRIPEIDLKLRKERTIREARILRRAKEFGVNVPYVFEVDTKNMIIVMEYIEGERLKELLEKLPMEERLKVCREVGRQIGKLHEAGIVHGDLTTSNMILREGKVYFIDFGLAEFDDTIEAQGVDLHLLKRAMESTHYKWFERGFEEVLKGYIEIRGEDKGREIREKIREIELRGRYRERSWITQ
chain 2: MTPKFKNFKHDNSGQVETYLFEVISKYTMLEIKTKFGKLCIAKVKLASESIERALNLCNDNCQIVSAKCHEEVIFATILAIKAFSSGRNTAKTIKGEILLRLAGVKQIKDAIKIIGARKGENLIIYFGVSDPCSSLKDFISSLGLREEPLKPCDEDEVKRGFERAAIIEAL
B2: Pcc1–Kae1 binary complex from Pyrococcus abyssi (complex)
chain 1: MKPKRVQGKIVIEFPSEDIAEVVYTSVLYEHVSVPYRRSRVNFRREGRRIVLEIEANDSSAMRGTVNSYLRWIKVALDVLNI
chain 2: MLALGIEGTAHTLGIGIVSEDKVLANVFDTLTTEKGGIHPKEAAEHHARLMKPLLRKALSEAGVSLDDIDVIAFSQGPGLGPALRVVATAARALAVKYRKPIVGVNHCIAHVEITKMFGVKDPVGLYVSGGNTQVLALEGGRYRVFGETLDIGIGNAIDVFARELGLGFPGGPKVEKLAEKGEKYIELPYAVKGMDLSFSGLLTEAIRKYRSGKYRVEDLAYSFQETAFAALVEVTERAVAHTEKDEVVLVGGVAANNRLREMLRIMTEDRGIKFFVPPYDLCRDNGAMIAYTGLRMYKAGISFRLEETIVKQKFRTDEVEIVW
notes: Pcc1, Pyrococcus abyssi; Kae1, Pyrococcus abyssi; Written as the unit of one Pcc1 and one Kae1 (predicted 45 kDa); Its dimerisation is a row of the complex with itself; also called PK; Kae1–Pcc1; source: E. coli Rosetta2 (DE3) pLysS, co-expressed, purified (heat 65°C, Ni-NTA, Superdex 200)

Legend:
[1] = molecular target: B2; assay: cell-based or functional assay
[2] = molecular target: the molecule itself; assay: SEC; gel filtration of purified proteins and complexes on Superdex 200 in storage buffer (LBs); apparent molecular mass (Supplementary Figure S2)

Row | t^6A synthesis (14C-L-threonine incorporated into tRNA) by an equimolar mix of the two binary complexes, relative to PaKEOPS [1] | Binder | stoichiometry N [2]
1 | ~80% | B1 | –
2 | – | B2 | 2
